According to the supplement of paper PMC10724198:
± gives the standard deviation of the averaged measurements.

Test system: Saccharomyces cerevisiae
Assay: protein stability index of tFT-peptide fusion (C-terminal peptide) (PSI (0-1 scale)); higher = more stable (slower turnover)
Conditions: genetic background: wild type; temperature: 30 C
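Further: PSI is a weighted mean of sequencing reads over stability bins, variants kept only with over 10 reads, mCherry proximal and sfGFP distal, peptide attached via GGGS linker.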

| Sequence | protein stability index |
| --- | --- |
| LPPRPRPLPPSP | 0.589 ± 0.0077 |
| SNAGRRRTNRIP | 0.682 ± 0.03 |
| PPKPAQPPTPSP | 0.693 ± 0.075 |
| WRRCSGGGVGSP | 0.655 ± 0.084 |
| KKKKTKKKEQKE | 0.693 ± 0.012 |
| CLSLLWRVLDLW | 0.688 ± 0.065 |
| FIKTSDAVIGEK | 0.563 ± 0.017 |
| RTAVFLTRRYGT | 0.673 ± 0.02 |
| TNVRMGCELEEK | 0.716 ± 0.14 |
| FFDPPPSLSALI | 0.7724 ± 0.0037 |
| PPPPTPPPRTSP | 0.739 ± 0.063 |
| CGGFAEGGGCRM | 0.697 ± 0.028 |
| YGFFCFLPVFRG | 0.661 ± 0.054 |
| IFNYGGANFIYC | 0.714 ± 0.028 |
| GRRPDEQRQTIG | 0.677 ± 0.0071 |
| PRFPPLPAHRVR | 0.633 ± 0.047 |
| KNNKKQRNRTGE | 0.669 ± 0.017 |
| KAGVGAFLEPRS | 0.713 ± 0.064 |
| WLPPPPPPSPSS | 0.767 ± 0.0026 |
| PPLPFARAPHCP | 0.732 ± 0.059 |
| RSRCHPRLPRAV | 0.707 ± 0.03 |
| GPLRFSLPPPPS | 0.69 ± 0.017 |
| TVAEGKKMRGKV | 0.672 ± 0.036 |
| CFLFSFSLFPFV | 0.618 ± 0.066 |
| TSPGLPLPLPSP | 0.716 ± 0.0048 |
| PSGLLPILRLFL | 0.681 ± 0.047 |

| Sequence | protein stability index |
| --- | --- |
| VSVILAGLFWIT | 0.473 ± 0.038 |
| PTLRAPLRYGYL | 0.675 ± 0.022 |
| PNLKKHFRADEP | 0.6832 ± 0.0036 |
| LSPLTPAPLPPP | 0.6675 ± 0.0058 |
| GWAFDVAGQSAR | 0.683 ± 0.0097 |
| FVGRWSSRSRGH | 0.768 ± 0.022 |
| GSFVLPLIYIHN | 0.499 ± 0.0025 |
| LFPCPLRPGCLP | 0.699 ± 0.099 |
| KLAHVKIKKTGK | 0.652 ± 0.018 |
| RGVGVRYGVARR | 0.6695 ± 0.006 |
| HGHLGKFLGARE | 0.689 ± 0.022 |
| KVCIRFSCKIHM | 0.6396 ± 0.0021 |
| PPPTSPRSPVPI | 0.697 ± 0.021 |
| VGGWGGFGLFFP | 0.742 ± 0.098 |
| PPPPPLPALPHL | 0.627 ± 0.023 |
| KKKRTKKEREKK | 0.6612 ± 0.0032 |
| RVNQRRATSEKT | 0.677 ± 0.0082 |
| KEEGLKRAKGPQ | 0.642 ± 0.02 |
| PCVCLRWTGKAF | 0.532 ± 0.031 |
| FLLFASPPPRPL | 0.715 ± 0.017 |
| PPPALVPRPPPR | 0.679 ± 0.0084 |
| LGFVGVRSVRSG | 0.667 ± 0.059 |
| QVKVGQTEMAYN | 0.78 ± 0.22 |
| SPKCIVASFVVS | 0.675 ± 0.028 |
| PPSPRPPRPLFA | 0.664 ± 0.021 |
| GLGGRGRRASEW | 0.664 ± 0.071 |

| Sequence | protein stability index |
| --- | --- |
| KKEQKFKEDSDR | 0.677 ± 0.019 |
| VPLCSGKLAQIS | 0.757 ± 0.0085 |
| GRVVGDGRSVGV | 0.683 ± 0.01 |
| AYYRPQNLSPVT | 0.675 ± 0.083 |
| PPSPCRTHRLYI | 0.629 ± 0.022 |
| FARPQCLPVPLP | 0.6555 ± 0.001 |
| FGGVGRGGLLWC | 0.7749 ± 0.0041 |
| LRLLLLVLPTCF | 0.527 ± 0.02 |
| VVCVGGVELLVL | 0.532 ± 0.019 |
| PPPPALIHSRPP | 0.7406 ± 0.0045 |
| PLPLPLPQTLPP | 0.6958 ± 0.0067 |
| LPPLPLPPAPSA | 0.621 ± 0.042 |
| ERNNTICREIIE | 0.686 ± 0.026 |
| LRLCSLSLPSLP | 0.704 ± 0.026 |
| RFMDPFSGITAF | 0.716 ± 0.018 |
| DRRLGKHEYQPY | 0.737 ± 0.022 |
| SSVILPLRRWPP | 0.648 ± 0.094 |
| TASFVSSGLLAF | 0.586 ± 0.012 |
| RLGERGAKPQGR | 0.635 ± 0.0074 |
| GGGPAVEGLVGR | 0.66 ± 0.045 |
| TGCGSRSSRTKT | 0.864 ± 0.021 |
| TTITTRSCALSS | 0.707 ± 0.015 |
| PLPRFLTLTLSQ | 0.652 ± 0.023 |
| RAPTRDQCPCPG | 0.68 ± 0.035 |
| PACFESCGLWGF | 0.75 ± 0.039 |
| VVQLSKWSTIIR | 0.64 ± 0.061 |

| Sequence | protein stability index |
| --- | --- |
| GWNCTAFRTLHI | 0.662 ± 0.061 |
| KSYTGSRGQRVL | 0.701 ± 0.053 |
| QKKSGKNGIRPK | 0.701 ± 0.065 |
| LFRPFATALFPL | 0.747 ± 0.066 |
| LPHVALFLLPAL | 0.638 ± 0.0064 |
| KKKQKTIYRQKE | 0.64 ± 0.089 |
| DKLDKKTLYLRK | 0.729 ± 0.061 |
| QYMDQIKGRSGT | 0.723 ± 0.0079 |
| FPRVTGTKPPPA | 0.7201 ± 0.0023 |
| KETQKKKQDKKK | 0.703 ± 0.0091 |
| GFGRGRRGLEEN | 0.695 ± 0.024 |
| GGRVFWGGSRSV | 0.651 ± 0.033 |
| QIYHIANPKILN | 0.696 ± 0.055 |
| TKNTEGVKNSLF | 0.64 ± 0.096 |
| GCWGRVLCGGSV | 0.695 ± 0.026 |
| WGPGGRLGVGHV | 0.676 ± 0.039 |
| PPPPPLGPLPAL | 0.688 ± 0.012 |
| PPVRPRPDPACR | 0.727 ± 0.031 |
| CLGGRRVCRCKG | 0.631 ± 0.054 |
| CGEGGVCRLVFS | 0.682 ± 0.0074 |
| RSVSLIAVAPSA | 0.692 ± 0.017 |
| KKQKKKTKANKT | 0.673 ± 0.041 |
| RRRVADIYHGEK | 0.713 ± 0.086 |
